According to paper PMC8754647, “A minimal motif for sequence recognition by mitochondrial transcription factor A (TFAM)”:

T1: TFAM (UniProt Q00059 43-246)
T1 sequence: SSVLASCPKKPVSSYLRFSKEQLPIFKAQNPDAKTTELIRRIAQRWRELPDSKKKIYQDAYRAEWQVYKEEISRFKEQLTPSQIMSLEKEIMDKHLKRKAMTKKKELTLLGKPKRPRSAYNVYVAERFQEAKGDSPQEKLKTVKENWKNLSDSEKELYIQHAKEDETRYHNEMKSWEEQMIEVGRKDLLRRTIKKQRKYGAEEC


Tests used:
TFAM [1] = target: T1, TFAM; assay: fluorescence polarization; 150 mM NaCl; EMSA: 10 mM HEPES pH 8.0, 500 mM NaCl, 2 mM DTT, 130 ug/ml BSA, 5% glycerol, 100 nM DNA, 30 min on ice then 10 min RT; FP: 10 mM HEPES pH 8.0, 150-400 mM NaCl; settings: protein: recombinant; tags: His-MBP N-terminal, removed by TEV; label: 5'-Cy3 on strand 1 (EMSA); 6-FAM (FP); blunt
TFAM [2] = target: T1, TFAM; assay: fluorescence polarization; 200 mM NaCl; EMSA: 10 mM HEPES pH 8.0, 500 mM NaCl, 2 mM DTT, 130 ug/ml BSA, 5% glycerol, 100 nM DNA, 30 min on ice then 10 min RT; FP: 10 mM HEPES pH 8.0, 150-400 mM NaCl; settings: protein: recombinant; tags: His-MBP N-terminal, removed by TEV; label: 5'-Cy3 on strand 1 (EMSA); 6-FAM (FP); blunt
TFAM [3] = target: T1, TFAM; assay: fluorescence polarization; 250 mM NaCl; EMSA: 10 mM HEPES pH 8.0, 500 mM NaCl, 2 mM DTT, 130 ug/ml BSA, 5% glycerol, 100 nM DNA, 30 min on ice then 10 min RT; FP: 10 mM HEPES pH 8.0, 150-400 mM NaCl; settings: protein: recombinant; tags: His-MBP N-terminal, removed by TEV; label: 5'-Cy3 on strand 1 (EMSA); 6-FAM (FP); blunt
TFAM [4] = target: T1, TFAM; assay: fluorescence polarization; 300 mM NaCl; EMSA: 10 mM HEPES pH 8.0, 500 mM NaCl, 2 mM DTT, 130 ug/ml BSA, 5% glycerol, 100 nM DNA, 30 min on ice then 10 min RT; FP: 10 mM HEPES pH 8.0, 150-400 mM NaCl; settings: protein: recombinant; tags: His-MBP N-terminal, removed by TEV; label: 5'-Cy3 on strand 1 (EMSA); 6-FAM (FP); blunt
TFAM [5] = target: T1, TFAM; assay: fluorescence polarization; 350 mM NaCl; EMSA: 10 mM HEPES pH 8.0, 500 mM NaCl, 2 mM DTT, 130 ug/ml BSA, 5% glycerol, 100 nM DNA, 30 min on ice then 10 min RT; FP: 10 mM HEPES pH 8.0, 150-400 mM NaCl; settings: protein: recombinant; tags: His-MBP N-terminal, removed by TEV; label: 5'-Cy3 on strand 1 (EMSA); 6-FAM (FP); blunt
TFAM [6] = target: T1, TFAM; assay: X-ray crystallography; 2.7 A; EMSA: 10 mM HEPES pH 8.0, 500 mM NaCl, 2 mM DTT, 130 ug/ml BSA, 5% glycerol, 100 nM DNA, 30 min on ice then 10 min RT; FP: 10 mM HEPES pH 8.0, 150-400 mM NaCl; settings: protein: recombinant; tags: His-MBP N-terminal, removed by TEV
TFAM [7] = target: T1, TFAM; assay: X-ray crystallography; 2.84 A; one TFAM bridges two DNA molecules; EMSA: 10 mM HEPES pH 8.0, 500 mM NaCl, 2 mM DTT, 130 ug/ml BSA, 5% glycerol, 100 nM DNA, 30 min on ice then 10 min RT; FP: 10 mM HEPES pH 8.0, 150-400 mM NaCl; settings: protein: recombinant; tags: His-MBP N-terminal, removed by TEV; 2 DNA molecules bridged per TFAM; ends stacked
TFAM [8] = target: T1, TFAM; assay: EMSA; 500 mM NaCl; apparent Kd; EMSA: 10 mM HEPES pH 8.0, 500 mM NaCl, 2 mM DTT, 130 ug/ml BSA, 5% glycerol, 100 nM DNA, 30 min on ice then 10 min RT; FP: 10 mM HEPES pH 8.0, 150-400 mM NaCl; settings: protein: recombinant; tags: His-MBP N-terminal, removed by TEV; label: 5'-Cy3 on strand 1 (EMSA); 6-FAM (FP); blunt
TFAM [9] = target: T1, TFAM; assay: EcoRI cleavage protection; 10 mM MgCl2, 50 mM NaCl; EMSA: 10 mM HEPES pH 8.0, 500 mM NaCl, 2 mM DTT, 130 ug/ml BSA, 5% glycerol, 100 nM DNA, 30 min on ice then 10 min RT; FP: 10 mM HEPES pH 8.0, 150-400 mM NaCl; settings: protein: recombinant; tags: His-MBP N-terminal, removed by TEV; blunt

Binder	Kd (TFAM [1])	Kd (TFAM [2])	Kd (TFAM [3])	Kd (TFAM [4])	Kd (TFAM [5])	further results
DNAAA (dsDNA) DNA 1: AAAAAGAATCATTTGGATATATAGGTAT DNA 2: ATACCTATATATCCAAATGATTCTTTTT	12 ± 1.5 nM	79 ± 1.4 nM	287 ± 15.7 nM	877 ± 38.5 nM	3850 ± 425 nM	–
LSP_B (dsDNA) DNA 1: AATTGTCAGTGGGGGGTTGATT DNA 2: AATCAACCCCCCACTGACAATT	–	–	–	–	–	binding result (TFAM [6]): binds
NS2 (dsDNA) DNA 1: ATCGGAAAGATAATCGAGAATC DNA 2: GATTCTCGATTATCTTTCCGAT	–	–	–	–	–	binding result (TFAM [7]): binds
DNAGG (dsDNA) DNA 1: AAAAAGAACCATTTGGATACATAGGTAT DNA 2: ATACCTATGTATCCAAATGGTTCTTTTT	13.5 ± 0.1 nM	55.5 ± 6 nM	259 ± 48.2 nM	1210 ± 113 nM	5180 ± 502 nM	Kd (TFAM [8]): 86.1 ± 14.3 nM
DNA2GG (dsDNA) DNA 1: CTGAAGCCAGTTACCTTTGAAAAAAGAGTTGGTAGCTCTTGATCCAGGAATTCAACCACCGCTGGTAGCGGTGGTTTTTTTATTTGCAAGCAGCAGATTA DNA 2: TAATCTGCTGCTTGCAAATAAAAAAACCACCGCTACCAGCGGTGGTTGAATTCCTGGATCAAGAGCTACCAACTCTTTTTTCAAAGGTAACTGGCTTCAG	–	–	–	–	–	binding result (TFAM [9]): binds
